Data reported in US20240141038A1 (SHANGHAI QILU PHARMACEUTICAL RESEARCH AND DEVELOPMENT CENTRE, published 2024).

Legend:
[1] = target: T1, Human NKp46 antigen for immunization, screening, and testing (Kactus, NKP-HM146) (human, UniProt O76036 22-255); experiment: ELISA, coated antigen, VHH supernatant, anti-Myc HRP
T1 construct: Bought protein; also called human NKp46 antigen protein; human NKp46 protein
Experimental: (§1) In order to obtain positive antibodies that can cross-bind to human NKp46 and cynomolgus monkey NKp46, the above libraries were amplified and added into M13K07 helper phage and assembled into bacteriophages. 1×10¹² pfu of immune camel antibody library and immune alpaca antibody library were added thereto, and the phages were incubated with biotinylated human NKp46 protein (8 μg/mL) bound to magnetic beads for 1 h at room temperature. After washing off the unbound bacteriophages with 0.05% PBST, the phages specifically bound to NKp46 were eluted with […] triethylamine, and after gradient dilution of the bacteriophages above, E. coli SS320 in the logarithmic growth phase were infected. After being cultured overnight at 37° C. on plates containing ampicillin, single-clone was picked for IPTG-induced expression, and the supernatant was used for ELISA assay. ELISA plates were coated with […] human NKp46 antigen or cynomolgus monkey NKp46 antigen overnight at 4° C., then washed 3 times with 0.05% PBST and blocked with 5% skim milk at room temperature for 1 h, and washed 3 times with 0.05% PBST. Then 30 µL of induced supernatant was then added into per well, medium were added to negative control wells, the ELISA plates were incubated at room temperature for 1 h, and finally detected with anti-Myc HRP (VHH with his and c-Myc labels were expressed by the induction of IPTG. Sequence clones that had OD450 values of greater than 1.0 for binding to human NKp46 and cynomolgus monkey NKp46 as determined by ELISA, and of which the ratio of OD450 values to that of negative control were greater than 3 were sequenced, thereby obtaining amino acid sequences of 30 variable regions of heavy chain antibodies disclosed in the present disclosure, as shown in Table 2.

[2] = target: T2, Cynomolgus monkey NKp46 for immunization, screening, and testing (Kactus, NKP-CM146) (cynomolgus monkey, UniProt Q95JB9 22-254); experiment: as above
T2 construct: Bought protein; also called monkey NKp46 antigen protein; cynomolgus monkey NKp46 antigen
Experimental: as §1

[3] = target: T3, human NKp46 (full length, on cells) (human, UniProt O76036 22-304); experiment: flow cytometry on human NKp46-CHOK1 cells
T3 construct: also called human NKp46-CHOK1
Experimental: (§2) The stable human NKp46-CHOK1 and cynomolgus monkey NKp46-CHOK1 cell lines obtained in Example 2 were cultured, the cells were digested with 0.25% pancreatic enzyme EDTA for about 5 minutes, and the digestion was terminated with the complete medium. After centrifugation at 1,500 rpm for 5 minutes, the supernatant was discarded, the precipitated cells were resuspended with PBS containing 1% BSA and counted. The cell density was adjusted to 1E6/mL and seeded in a corning-3799 96-well culture plate at 100 μL/well. Aftering centrifuging at 1,500 rpm for 5 minutes, the supernatant was discarded and the precipitate was set aside at 4° C. The antibody solutions were prepared with PBS containing 1% BSA, wherein the antibody solution has an initial concentration was 100 nM, then diluted in 10-fold to obtain 7 gradients: 10⁻⁴ nM, 10⁻³ nM, 10⁻² nM, 10⁻¹ nM, […], and 10² nM. The prepared antibody solutions were used to resuspend the cells, 100 μL/well. The resuspended cell culture plates were incubated in a 4° C. freezer for 1 h. After centrifugation at 1500 rpm for 5 minutes, the supernatant was discarded. The precipitate was washed with 160 μL of PBS containing 1% BSA, the supernatant was discarded, and the cells were stored for later use.
(§3) The Secondary antibody (goat anti human IgG Fc PE) solution was prepared with PBS containing 1% BSA, and diluted 1:200. The cells were resuspended with the prepared secondary antibody solution, 100 μL/well, incubated in a 4° C. freezer for 0.5 h. After centrifugation at 1,500 rpm for 5 minutes, the supernatant was discarded, the precipitated cells were washed with 160 μL of PBS containing 1% BSA, the supernatant was discarded, the cells were resuspended with 100 μL of PBS containing 1% BSA, and filtered in 300-mesh gauze. The mean fluorescence intensity of antibody binding to cells was then analyzed on a flow cytometer. The FCS file was exported from the flow cytometer, the mean fluorescence intensity (hereinafter referred to as MFI) of PE channel was analyzed with Flowjo software, and the mean fluorescence intensity obtained was introduced into the Graphpad to analyze the half binding concentration (hereinafter referred to as EC₅₀) and the top mean fluorescence intensity (Top MFI) of the antibody and the cell.

[4] = target: T3, human NKp46 (full length, on cells); experiment: cell-based or functional assay
[5] = target: T4, cynomolgus monkey NKp46 (full length, on cells) (cynomolgus monkey, UniProt Q95JB9 22-306); experiment: flow cytometry on cynomolgus monkey NKp46-CHOK1 cells
T4 construct: also called cynomolgus monkey NKp46-CHOK1; cynomolgus NKp46-CHOK1
Experimental: as §2, §3

T4 sequence (Q95JB9 22-306): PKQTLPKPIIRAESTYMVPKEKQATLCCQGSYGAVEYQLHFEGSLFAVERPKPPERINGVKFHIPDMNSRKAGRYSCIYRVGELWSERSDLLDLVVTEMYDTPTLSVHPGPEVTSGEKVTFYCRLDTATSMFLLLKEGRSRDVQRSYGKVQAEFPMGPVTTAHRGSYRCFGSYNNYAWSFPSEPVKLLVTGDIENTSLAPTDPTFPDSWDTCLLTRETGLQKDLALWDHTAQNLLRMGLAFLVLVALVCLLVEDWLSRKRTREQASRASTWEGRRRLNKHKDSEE
T1 sequence (O76036 other isoform, or with tags, fused parts or gaps limits assumed): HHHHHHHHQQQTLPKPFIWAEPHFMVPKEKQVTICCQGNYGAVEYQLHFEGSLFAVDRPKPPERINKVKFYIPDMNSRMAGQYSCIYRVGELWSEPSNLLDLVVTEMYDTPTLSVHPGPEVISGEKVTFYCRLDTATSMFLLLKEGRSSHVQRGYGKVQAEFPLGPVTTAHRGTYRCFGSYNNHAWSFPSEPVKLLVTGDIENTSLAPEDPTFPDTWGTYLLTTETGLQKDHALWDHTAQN
T3 sequence (O76036 22-304 Q82K): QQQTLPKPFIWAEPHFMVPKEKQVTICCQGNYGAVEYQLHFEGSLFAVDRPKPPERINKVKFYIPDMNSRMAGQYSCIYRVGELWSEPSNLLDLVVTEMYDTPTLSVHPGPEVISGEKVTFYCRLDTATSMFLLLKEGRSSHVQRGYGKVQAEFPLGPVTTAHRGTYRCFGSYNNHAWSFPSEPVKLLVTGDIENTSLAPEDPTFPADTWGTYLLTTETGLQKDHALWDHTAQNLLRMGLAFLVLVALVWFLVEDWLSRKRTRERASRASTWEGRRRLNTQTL
T2 sequence (Q95JB9 other isoform, or with tags, fused parts or gaps limits assumed): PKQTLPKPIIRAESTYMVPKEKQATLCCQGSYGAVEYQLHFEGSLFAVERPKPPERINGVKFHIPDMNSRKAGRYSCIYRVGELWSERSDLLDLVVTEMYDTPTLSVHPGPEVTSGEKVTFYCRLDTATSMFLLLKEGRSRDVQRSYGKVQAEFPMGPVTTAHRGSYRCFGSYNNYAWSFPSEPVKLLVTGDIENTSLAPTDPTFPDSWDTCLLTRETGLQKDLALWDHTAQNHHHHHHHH

Binder	OD450 [1]	ratio of OD450 to negative control [1]	OD450 [2]	ratio of OD450 to negative control [2]	EC50 [3] [nM]	Top MFI [3]	EC50 of NK cell activation (CD107a-positive NK cells, plate-coated antibody) [4] [nM]	Top mean fluorescence intensity (Top MFI), NK cell activation (CD107a) [4]	EC50 [5] [nM]	Top MFI [5]
NKp46-PA24 VHH (his and c-Myc labels) (VHH, IPTG-induced E. coli supernatant used in the screening ELISA; also called NKp46-PA24 clone supernatant; not shown: his and c-Myc labels) VHH: QVQLVESGGGQVQAGGSLRLSCVASGRTYSIYGMGWFRQAPGKEREVVAAINWSSGHTYYADSVKGRFTISKDNAKNTHYLQMNSLKPEDTAVYYCAADSIYGLSFTVKDYDYWGQGTLVTVSS	> 1	> 3	> 1	> 3	–	–	–	–	–	–
NKp46-PA15 VHH (his and c-Myc labels) (VHH, IPTG-induced E. coli supernatant used in the screening ELISA; also called NKp46-PA15 clone supernatant; not shown: his and c-Myc labels) VHH: QVQLVESGGGLVQAGDSLRVSCAASGRTFSTYAMGWFRQAPGKEREFVAASSRDGTTTYYADSVKGRFTISRDNAKNTVYLQMNSLKPEDTAVYYCAASRPLSTTQVGIASAWYEYWGQGTQVTVSS	> 1	> 3	> 1	> 3	–	–	–	–	–	–
NKp46-PA19 VHH (his and c-Myc labels) (VHH, IPTG-induced E. coli supernatant used in the screening ELISA; also called NKp46-PA19 clone supernatant; not shown: his and c-Myc labels) VHH: QVQLVESGGGLVQPGGSLRLACAASGRTFSTYAMGWFRQAPGKEREFVAAISRNGGTTYYADSVKGRFTISRDNAKNTVYLQMNSLKPEDTAVYYCAASRPLSNTQVGVASAWYEFWGQGTLVTVSS	> 1	> 3	> 1	> 3	–	–	–	–	–	–
NKp46-PA11 VHH (his and c-Myc labels) (VHH, IPTG-induced E. coli supernatant used in the screening ELISA; also called NKp46-PA11 clone supernatant; not shown: his and c-Myc labels) VHH: DVQLVESGGGLVQAGGSLRLSCAASGHTESWYRMGWFRQAPGKGREVVGRISGSPGILYYAGSVKGRFTISRDNAKNTLYLQMTNLKPEDTARYYCAADRTGATWDYWGQGTQVTVSS	> 1	> 3	> 1	> 3	–	–	–	–	–	–
NKp46-PA27 VHH (his and c-Myc labels) (VHH, IPTG-induced E. coli supernatant used in the screening ELISA; also called NKp46-PA27 clone supernatant; not shown: his and c-Myc labels) VHH: DVQLVESGGGLVQAGASLRLSCAASGRTESWYRMGWFRQAPGKGREVVARISGDTNIKYYAGSVKGRFTISRDNAKNTLYLQMTNLKPEDTARYYCAADRTGATWDYWGQGTQVTVSS	> 1	> 3	> 1	> 3	–	–	–	–	–	–
H4-PC11 humanized antibody (antibody, human IgG1, V domains shown, not shown: constant region of human IgG1) VH: EVQLVESGGGLVQPGGSLRLSCAPSPYSANSFSMAWFRQAPGKGREGIACIQAESGSTNVAPSVKGRFTISQDNSKNTLYLQMNSLRAEDTAVYYCAAFKRNVGGCELRPEHWRFWGQGTLVTVSS	–	–	–	–	0.305	7240	1.84	19.3	0.274	3620
H5-PC11 humanized antibody (antibody, human IgG1, V domains shown, not shown: constant region of human IgG1) VH: EVQLVESGGGLVQPGGSLRLSCAPSPYSANSFSMAWFRQAPGKEREGIACIQAESGSTNVAPSVKGRFTISQDNSKNTLYLQMNSLRAEDTAVYYCAAFKRNVGGCELRPEHWRFWGQGTLVTVSS	–	–	–	–	0.302	7370	0.95	23.6	0.27	3660
H3-PA27 humanized antibody (antibody, human IgG1, V domains shown, not shown: constant region of human IgG1) VH: QVQLVESGGGVVQPGRSLRLSCAASGRTESWYRMGWFRQAPGKGREVVARISGDTNIKYYAGSVKGRFTISRDNSKNTLYLQMSSLRAEDTAVYYCAADRTGATWDYWGQGTLVTVSS	–	–	–	–	0.153	6820	7.39	14.4	0.072	4060
H3-PA45 humanized antibody (antibody, V domains shown, not shown: constant region of human IgG1) VH: EVQLVESGGGLVQPGGSLRLSCAASGRTFSRLPMAWFRQAPGKGREFVAAISWSGGSTYYADSMKGRFTISRDNSKNTAYLQMNSLRAEDTAVYYCAAVGDSAPYSATIVYTDARAYAYWGQGTLVTVSS	–	–	–	–	0.188	5720	0.58	34	1.52	3330

Other lines, results leading:

OD450 [1]	ratio of OD450 to negative control [1]	OD450 [2]	ratio of OD450 to negative control [2]	EC50 [3] [nM]	Top MFI [3]	EC50 of NK cell activation (CD107a-positive NK cells, plate-coated antibody) [4] [nM]	Top mean fluorescence intensity (Top MFI), NK cell activation (CD107a) [4]	EC50 [5] [nM]	Top MFI [5]	Binder
> 1	> 3	> 1	> 3	–	–	–	–	–	–	NKp46-PA29 VHH (his and c-Myc labels) (VHH, IPTG-induced E. coli supernatant used in the screening ELISA; also called NKp46-PA29 clone supernatant; not shown: his and c-Myc labels) VHH: QVQLVESGGGWVQPGGSLRLSCAASGRTYSIYGMGWFRQAPGKEREIVAAINWNSGHTYYADSVKGRFTISRDNAKNTHYLQMNSLKPEDTAVYYCAADSIIGLSFTVKDYDYWGQGTQVTVSS
> 1	> 3	> 1	> 3	–	–	–	–	–	–	NKp46-PA26 VHH (his and c-Myc labels) (VHH, IPTG-induced E. coli supernatant used in the screening ELISA; also called NKp46-PA26 clone supernatant; not shown: his and c-Myc labels) VHH: QVQLVESGGGMVQAGGSLRLSCAASGRTFNTIHWFRQAPGKEREFVARIWWIGGATFYADSVKGRFTISRDNTENLVYLQMNSLKPEDTAVYYCAADARYTSHGYYESDYWGPGTQVTVSS
–	–	–	–	0.253	6000	> 20	6.3	0.338	2540	H1-PA27 humanized antibody (antibody, human IgG1, V domains shown, also called hPA27; not shown: constant region of human IgG1) VH: QVQLVESGGGVVQPGRSLRLSCAASGRTESWYRMGWVRQAPGKGLEWVARISGDTNIKYYAGSVKGRFTISRDNSKNTLYLQMSSLRAEDTAVYYCAADRTGATWDYWGQGTLVTVSS
> 1	> 3	> 1	> 3	–	–	–	–	–	–	NKp46-PA28 VHH (his and c-Myc labels) (VHH, IPTG-induced E. coli supernatant used in the screening ELISA; also called NKp46-PA28 clone supernatant; not shown: his and c-Myc labels) VHH: QVQLVESGGGLVQAGDSLRLSCVASGRTFSTYAMGWFRQAPGKEREFVAAISRNADTTYYADSVKGRFTISRDNAKNTVYLQMNSLKPEDTAVYYCAADRYSSNTQVGVARTYYDYWGQGTQVTVSS
–	–	–	–	0.148	5980	0.75	31.6	1.16	3210	H3-PA31 humanized antibody (antibody, human IgG1, V domains shown, not shown: constant region of human IgG1) VH: EVQLVESGGGLVQPGGSLRLSCAVSGRTFSRLPMGWFRQAPGKGREFVAAISWSSSTTYYADSVKGRFTISRDNSKNTAYLQMNSLRAEDTAVYYCAAVGGSLDYSATVVYTAARAYADWGQGTLVTVSS
–	–	–	–	0.543	5090	7.39	30.8	11.1	3120	H1-PA45 humanized antibody (antibody, human IgG1, V domains shown, also called hPA45; not shown: constant region of human IgG1) VH: EVQLVESGGGLVQPGGSLRLSCAASGRTFSRLPMAWVRQAPGKGLEWVSAISWSGGSTYYADSMKGRFTISRDNSKNTLYLQMNSLRAEDTAVYYCAAVGDSAPYSATIVYTDARAYAYWGQGTLVTVSS
